These results are taken from PMC4986892 (RNA, 2016).

Test [1] deals with T1, S. pombe Dcp1:Dcp2RD decapping complex (S. pombe, UniProt Q9P805;O13828).
T1 sequence 1: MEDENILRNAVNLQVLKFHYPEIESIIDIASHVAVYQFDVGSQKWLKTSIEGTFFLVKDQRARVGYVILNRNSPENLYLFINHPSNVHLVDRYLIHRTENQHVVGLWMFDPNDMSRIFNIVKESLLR
T1 sequence 2: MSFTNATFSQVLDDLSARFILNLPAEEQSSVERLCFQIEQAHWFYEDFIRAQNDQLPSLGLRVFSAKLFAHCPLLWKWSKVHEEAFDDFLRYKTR
Briefly: NMR titration.

In test [2] the target is T1, S. pombe Dcp1:Dcp2RD decapping complex. Nature of the test: NMR titration. This is another data set of the same source.
For test [3] the target is unchanged. Nature of the test: fluorescence polarisation. On the technique in general: Fluorescence polarisation rises when a labelled molecule tumbles more slowly, as on binding a larger partner.
Test [4] concerns the target T2, S. pombe Dcp1:Dcp2_(RD+CD) decapping complex (S. pombe, UniProt Q9P805;O13828).
T2 sequence 1: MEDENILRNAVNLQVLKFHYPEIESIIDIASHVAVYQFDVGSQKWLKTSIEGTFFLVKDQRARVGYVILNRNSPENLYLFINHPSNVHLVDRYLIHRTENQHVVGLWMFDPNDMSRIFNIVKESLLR
T2 sequence 2: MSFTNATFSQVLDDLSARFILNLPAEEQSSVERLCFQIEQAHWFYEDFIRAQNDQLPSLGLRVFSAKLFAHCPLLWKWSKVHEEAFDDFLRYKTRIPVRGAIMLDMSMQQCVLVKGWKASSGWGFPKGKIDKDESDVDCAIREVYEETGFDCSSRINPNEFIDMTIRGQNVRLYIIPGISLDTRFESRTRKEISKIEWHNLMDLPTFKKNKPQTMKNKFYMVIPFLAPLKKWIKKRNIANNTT
Nature of the test: fluorescence polarisation.

Test [5] has as its target T3, S. pombe Dcp1 (S. pombe, UniProt Q9P805).
T3 sequence: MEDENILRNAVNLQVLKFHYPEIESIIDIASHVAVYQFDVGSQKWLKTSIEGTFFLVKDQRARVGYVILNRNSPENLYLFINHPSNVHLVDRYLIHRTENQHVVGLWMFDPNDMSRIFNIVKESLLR
Briefly: NMR titration.

In the case of APSDLATPQPSTFPQPPVESHSSFDIKQKILHLLNEGNEPKSPI (domain or fragment) [S. pombe Dcp2 C-terminal region (269–312)], binding in test [1] was characterised by a dissociation constant (Kd) of 310000 ± 110000 nM.

B1: S. pombe Xrn1 (1201–1328) (domain or fragment)
chain: TNPQFVVNTRAGKNRKTNVSANNVSQGTDSRLVTKPTSTFPSPPSPPSSSVWNKREHHPKPFSLHQVPPPESLIHKSKSKFSKGNHHSTNGTQSIRGRGGKRGKPLRSKELNRKHDHIVQPMGKLQIN
Turning to B1, the binding result in test [2] is listed as “binds”.

B2: Fluorescently labeled S. pombe Edc1 1–221 (S183C) (domain or fragment)
chain: MQKDIGRRFQRNKKKINSKPGGAMVASSDVEFSLDGMSIMPQRDGNLQIPNFVKPKSTFATSNIGESNGKRNGDKVRGNRRSKSGHSSYAGSRISGGNSNSHLPSGVASAPAGLGIDKVAVGEVDSHLKSVSSYVSNSSGADRSFSSNSSSDTNSILYAGPTFTHSPAASNLPIPTFLHSPVCEKAEWQPPTGSVNSNMPFQFHQSSSVPSTPSEVAMGHN
modifications: 5-(iodoacetamido)-fluorescein on the cysteine introduced by S183C (labeling efficiency ~50%)
Take B2: the Kd was 143 nM in test [3] and 250 nM in test [4].
Molecule VSQGTDSRLVTKPTSTFPSPPSPPSSSVWNKREH [S. pombe Xrn1 (1224–1257)] returned a Kd in test [1] of 640000 ± 170000 nM.

B3: S. pombe Edc1 (144–215) (domain or fragment)
chain: SFSSNSSSDTNSILYAGPTFTHSPAASNLPIPTFLHSPVSEKAEWQPPTGSVNSNMPFQFHQSSSVPSTPSE
In turn, B3 yielded an equilibrium dissociation constant (Kd) in test [4] of 415 nM.
Turning to SFSSNSSSDTNSILYAGPTFTHSPAASNLPIPTFLHSP [S. pombe Edc1 (144–181), as used for NMR], the binding result in test [2] is “binds”.

B4: S. pombe Dcp2 C-terminal tail (267–350) (domain or fragment)
chain: STAPSDLATPQPSTFPQPPVESHSSFDIKQKILHLLNEGNEPKSPIQLPPVSNLPLNPPIQSSNSRLSHDNNSFDPFAYLGLDP
With B4, the binding result in test [5] is “binds”.
In the case of GTEIQPIPPSIDPSLYVFP [S. pombe Dhh1 (401–419)], the binding result in test [2] was “binds”.

What is called Kd is the equilibrium constant for the complex coming apart. A higher Kd goes with weaker binding.
